Laboratory results: paper PMC12395675

Columns and labels:
[1] = CHX chase, anti-Flag western blot, 293T; conditions: glycan lost; control: WT S protein
[2] = RT-qPCR of intestinal tissues at 5 dpc; conditions: glycan lost; control: rPEDV-WT
[3] = oral challenge; fecal scores, gross necropsy; conditions: glycan lost; control: rPEDV-WT
[4] = viral titre at 24 hpi, MOI 0.01; conditions: glycan lost; control: rPEDV-WT
[5] = BAC transfection of Vero cells; CPE, western blot; conditions: glycan lost; control: rPEDV-WT
[6] = plaque morphology assay, ImageJ; conditions: glycan lost; control: rPEDV-WT
[7] = viral titre in LLC-PK1 cells; conditions: glycan lost; control: rPEDV-WT
[8] = H&E staining of intestine at 5 dpc; conditions: glycan lost; control: rPEDV-WT
[9] = anti-PEDV N immunofluorescence of intestine sections; conditions: glycan lost; control: rPEDV-WT
RT-qPCR of rectal swabs = conditions: glycan lost; control: rPEDV-WT
[10] = 4 °C binding, RT-qPCR of PEDV N; conditions: glycan lost; control: rPEDV-WT
[11] = 37 °C 30 min, citrate wash, RT-qPCR; conditions: glycan lost; control: rPEDV-WT

B1: spike (S) protein: N726Q (protein)
parent chain: MKSLTYFWLFLPVLSTLSLPQDVTRCSANTNFRRFFSKFNVQAPAVVVLGGYLPIGENQGVNSTWYCAGQHPTASGVHGIFVSHIRGGHGFEIGISQEPFDPSGYQLYLHKATNGNTNATARLRICQFPSIKTLGPTANNDVTTGRNCLFNKAIPAHMSEHSVVGITWDNDRVTVFSDKIYYFYFKNDWSRVATKCYNSGGCAMQYVYEPTYYMLNVTSAGEDGISYQPCTANCIGYAANVFATEPNGHIPEGFSFNNWFLLSNDSTLVHGKVVSNQPLLVNCLLAIPKIYGLGQFFSFNQTIDGVCNGAAVQRAPEALRFNINDTSVILAEGSIVLHTALGTNFSFVCSNSSDPHLATFATPLGATQVPYYCFLKVDTYNSTVYKFLAILPPTVREIVITKYGDFYVNGFGYLHLGLLDAVTINFTGHGTDDDVSGFWTIASTNFVDALIEVQGTAIQRILYCDDPVSQLKCSQVSFDLDDGFYPISSRNLLSHEQPISFVTLPSFNDHSFVNITVSASFGGHSGANLIASDTTINGFSSFCVETRQFTISLFYNVTNSYGYVSKSQDSNCPFTLQSVNDYLSFSKFCVSTSLLASACTIDLFGYPEFGSGVKFTSLYFQFTKGELITGTPKPLVGVTDVSFMTLDVCTKYTIYGFKGEGIITLTNSSFLAGIYYTSDSGQLLAFKNVTSGAVYSVTPCSFSEQAAYVDDDIVGVISSLSNSTFNSTRELPGFFYHSNDGSNCTEPVLVYSNIGVCKSGSIGYVLSKSGQVKIAPTVTGNISIPTNFSMSIRTEYLQLYNTPVSVDCATYVCNGNSRCKQLLTQYIAACKTIESALQLSARLESAEVNSMLTISEEALQLATISSFNGDGYNFTNVLGVSVRDPASGRVVQKRSFIEDLLFNKVVTNGLGTVDEDYKRCSNGRSVADLVCAQYYSGVMVLPGVVDAEKLHMYSASLIGGMVLGGFTAAAALPFSYAVQARLNYLALQTDVLQRNQQLLAESFNSAIGDITSAFESVKEAISQTSKGLNTVAHALTKVQEVVNSQGAALTQLTVQLQHNFQAISSSIDDIYSRLDILSADVQVDRLITGRLSALNAFVAQTLTKYTEVQASRKLAQQKVNECVKSQSQRYGFCGGDGEHIFSLVQAAPQGLLFLHTVLVPGDFVDVIAIAGLCVNDEIALTLREPGLVLFTHELQNHTATEYFVSSRRMFEPRKPTVSDFVQIESCVVTYVNLTRDQLPDVIPDYIDVNKTLYEILASLPNRTGPSLPLDVFNATYLNLTGEIADLEQRSESLRNTTEELQSLIYNINNTLVDLEWLNRVETYIKWPWWVWLIIFIVLIFVVSLLVFCCISTGCCGCCGCCGACFAGCCRGPRLQPYEAFEKVHVQ
[1]
  degradation_or_half_life: no change
[2]
  other: intestinal viral load: no change
[3]
  other: virulence in animals: decreases
[4]
  other: viral replication: decreases
[5]
  other: virus rescue (viability), other: viruses recovered/attempts: no change
[6]
  other: plaque size: decreases
[7]
  other: viral replication: decreases

B2: spike (S) protein: N1249Q (protein)
parent chain: B1 parent chain
[8]
  other: intestinal histopathology: abolishes
[1]
  degradation_or_half_life: no change
[9]
  other: intestinal viral antigen: abolishes
[2]
  other: intestinal viral load: decreases
[3]
  other: virulence in animals: decreases
RT-qPCR of rectal swabs
  other: faecal viral shedding: decreases
[10]
  other: viral attachment: no change
[4]
  other: viral replication: decreases
[5]
  other: virus rescue (viability), other: viruses recovered/attempts: no change
[6]
  other: plaque size: decreases
[7]
  other: viral replication: decreases

B3: spike (S) protein: N1232Q (protein)
parent chain: B1 parent chain
[8]
  other: intestinal histopathology: abolishes
[1]
  degradation_or_half_life: no change
[9]
  other: intestinal viral antigen: abolishes
[2]
  other: intestinal viral load: decreases
[3]
  other: virulence in animals: decreases
[11]
  other: viral internalization: decreases
RT-qPCR of rectal swabs
  other: faecal viral shedding: decreases
[10]
  other: viral attachment: no change
[4]
  other: viral replication: decreases
[5]
  other: virus rescue (viability), other: viruses recovered/attempts: no change
[6]
  other: plaque size: decreases
[7]
  other: viral replication: decreases

B4: spike (S) protein: N216Q (protein)
parent chain: B1 parent chain
[1]
  degradation_or_half_life: no change
[2]
  other: intestinal viral load: no change
[3]
  other: virulence in animals: decreases
[11]
  other: viral internalization: decreases
[4]
  other: viral replication: decreases
[5]
  other: virus rescue (viability), other: viruses recovered/attempts: no change
[6]
  other: plaque size: decreases
[7]
  other: viral replication: decreases

B5: spike (S) protein: N118Q (protein)
parent chain: B1 parent chain
[1]
  degradation_or_half_life: no change
[2]
  other: intestinal viral load: no change
[3]
  other: virulence in animals: decreases
[11]
  other: viral internalization: decreases
[10]
  other: viral attachment: decreases
[4]
  other: viral replication: decreases
[5]
  other: virus rescue (viability), other: viruses recovered/attempts: no change
[6]
  other: plaque size: decreases
[7]
  other: viral replication: decreases
